According to patent publication US20100119506A1, “Effectors of PAR-2 Activation and Their Use in the Modulation of Inflammation” (BOEHRINGER INGELHEIM INTERNATIONAL GMBH, priority 2008, published 2010):

How the values were obtained:
[1] = target: PAR-2 peptide (Homo sapiens, UniProt P55085); assay: ELISA binding to PAR-2 peptide; conditions: peptide coupled to Transferrin
Procedure: (§1) The molecular selectivity of antibodies for PAR-2 versus PAR-1 and PAR-4 was assessed using peptides derived from the N-terminal regions of all three PARs: […]

[2] = target: T1, PAR-2 (Homo sapiens, UniProt P55085); assay: Binding to PAR-2 transfected HEK293 cells; assay type: cell-based; design: expressed in transfected cells; host or cells: HEK293; conditions: for Ratio of EC50 Fab EC50 IgG: HEK-PAR-2 binding; for EC50: Fab, read-out: Binding of Fab to HEK-PAR-2 (#3) (3RBO64) EC50
T1 sequence (P55085 26-397): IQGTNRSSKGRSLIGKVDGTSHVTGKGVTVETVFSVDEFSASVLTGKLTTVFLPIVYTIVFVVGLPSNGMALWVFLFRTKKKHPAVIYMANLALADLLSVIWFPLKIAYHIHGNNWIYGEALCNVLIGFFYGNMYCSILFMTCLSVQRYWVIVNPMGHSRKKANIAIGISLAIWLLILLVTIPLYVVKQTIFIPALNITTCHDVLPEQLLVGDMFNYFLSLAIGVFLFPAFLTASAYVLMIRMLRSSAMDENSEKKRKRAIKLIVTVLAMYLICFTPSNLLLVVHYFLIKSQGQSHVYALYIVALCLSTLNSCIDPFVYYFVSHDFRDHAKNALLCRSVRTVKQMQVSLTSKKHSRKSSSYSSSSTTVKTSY
Source text: These Fabs were then converted to the IgG4_Pro (“IgG4p”) format. The IgG4_Pro antibodies consist of the variable VH and VL regions derived from corresponding Fabs fused to the constant regions of human IgG4 including a Ser241Pro mutation in the hinge region of the H-chain. The proline substitution in the hinge region is known to prevent the formation of half-molecules in natural human IgG4 molecules (Angal et al. (1993) Molec. Immunol. 30:105-108).

[3] = target: T2, PAR-1 peptide (Homo sapiens, UniProt P25116); assay: ELISA binding to PAR-1 peptide
T2 sequence (P25116 38-66 limits assumed): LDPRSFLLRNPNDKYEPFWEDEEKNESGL
Procedure: as §1

[4] = target: T3, PAR-4 peptide (Homo sapiens, UniProt Q96RI0, C54S); assay: ELISA binding to PAR-4 peptide
T3 sequence (Q96RI0 44-71 C54S): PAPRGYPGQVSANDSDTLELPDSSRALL
Procedure: as §1

[5] = target: T1, PAR-2; assay: Trypsin induced calcium response (FLIPR) in A549 cells; assay type: cell-based; design: expressing endogenous PAR-2; endogenous in cells; host or cells: A549; conditions: for inhibition of trypsin mediated calcium response/release in A549 (in words): full antibodies
Procedure: Using A549 cells, PAR-2 activation was measured by detecting the calcium response following trypsin stimulation. Fabs were tested in this assay for their ability to inhibit this response. […] Antibody concentrations are expressed as μg/ml (FIG. 6).
(§2) Thrombin activates PAR-1, whereas PAR-2 is activated by trypsin in A549 cells.

[6] = target: T4, PAR-1 (Homo sapiens, UniProt P25116); assay: Thrombin-induced calcium response (FLIPR) in A549 cells; assay type: cell-based; conditions: antibody concentrations up to 300 nM
T4 construct: endogenous in cells; host or cells: A549
T4 sequence (P25116 22-425): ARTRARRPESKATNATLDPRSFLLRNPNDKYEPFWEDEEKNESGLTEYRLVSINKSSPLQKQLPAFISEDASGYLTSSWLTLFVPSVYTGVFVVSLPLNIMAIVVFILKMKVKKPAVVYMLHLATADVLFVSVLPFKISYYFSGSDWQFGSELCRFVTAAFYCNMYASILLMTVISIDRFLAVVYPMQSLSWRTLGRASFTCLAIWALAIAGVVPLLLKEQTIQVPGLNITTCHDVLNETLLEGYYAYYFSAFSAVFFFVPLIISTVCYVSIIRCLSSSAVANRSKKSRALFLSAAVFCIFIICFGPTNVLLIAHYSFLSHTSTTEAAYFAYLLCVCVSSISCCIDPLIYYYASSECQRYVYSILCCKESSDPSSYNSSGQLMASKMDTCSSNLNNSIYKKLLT
Source text: as §2

[7] = target: T5, mouse PAR-2 (Mus musculus, UniProt P55086); assay: FLIPR trypsin-induced calcium release in mouse LLC cells; assay type: cell-based
T5 construct: endogenous in cells; host or cells: LLC (mouse Lewis lung carcinoma)
T5 sequence (P55086 26-399): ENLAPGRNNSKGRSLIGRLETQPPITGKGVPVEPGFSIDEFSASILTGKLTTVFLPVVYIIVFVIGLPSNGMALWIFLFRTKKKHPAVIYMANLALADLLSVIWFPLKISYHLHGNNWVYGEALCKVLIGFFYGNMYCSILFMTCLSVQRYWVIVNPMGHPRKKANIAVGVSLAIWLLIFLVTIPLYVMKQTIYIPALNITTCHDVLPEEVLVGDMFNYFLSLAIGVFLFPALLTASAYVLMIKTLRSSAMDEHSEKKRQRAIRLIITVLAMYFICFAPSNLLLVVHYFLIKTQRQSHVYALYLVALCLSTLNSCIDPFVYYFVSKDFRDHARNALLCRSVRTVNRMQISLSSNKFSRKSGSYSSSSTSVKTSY
Procedure: To further assess functional cross-reactivity with mouse PAR-2, the antibodies were tested in FLIPR assays with the mouse Lewis lung carcinoma (LLC) cell line.

B1: Ab4999: affinity matured from Ab3777, L-CDR3 optimized; light chain SEQ ID NO:27, heavy chain SEQ ID NO:7 (antibody, V domains shown)
VH: QVQLVESGGGLVQPGGSLRLSCAASGFTFSSYAMNWVRQAPGKGLEWVSTISYSSSATSYADSVKGRFTISRDNSKNTLYLQMNSLRAEDTAVYYCARIQNDPMDVWGQGTLVTVSS
VL: DIELTQPPSVSVAPGQTARISCSGDNLGKKYVQWYQQKPGQAPVLVIYDDSNRPSGIPERFSGSNSGNTATLTISGTQAEDEADYYCQTWDYSSIRDETNVFGGGTKLTVLGQ
modifications: Antibody identified via phage display; Antibody modified via affinity maturation
binding to PAR-2 peptide (in words) [1]: specific binding | Ratio of EC50 Fab EC50 IgG [2]: 0.3 | binding to PAR-1 peptide (in words) [3]: did not exhibit detectable binding | binding to PAR-4 peptide (in words) [4]: no binding

B2: Ab5151: cross-cloned: light chain of Ab4999 combined with the heavy chain of Ab5007 (antibody, V domains shown)
VH: QVQLVESGGGLVQPGGSLRLSCAASGFTFSSYAMNWVRQAPGKGLEWVSAISFSGHLTGYADSVKGRFTISRDNSKNTLYLQMNSLRAEDTAVYYCARIQNDPMDVWGQGTLVTVSS
VL: DIELTQPPSVSVAPGQTARISCSGDNLGKKYVQWYQQKPGQAPVLVIYDDSNRPSGIPERFSGSNSGNTATLTISGTQAEDEADYYCQTWDYSSIRDETNVFGGGTKLTVLGQ
binding to PAR-2 peptide (in words) [1]: specific binding | inhibition of trypsin mediated calcium response/release in A549 (in words) [5]: significant inhibition | inhibition of the thrombin induced calcium response (in words) [6]: no inhibition | binding to PAR-1 peptide (in words) [3]: did not exhibit detectable binding | binding to PAR-4 peptide (in words) [4]: no binding

B3: Par-C: codon-optimized anti-PAR-2 antibody; Ab4999 light chain (SEQ ID NO:37), Ab5007 or Ab5151 heavy chain (SEQ ID NO:39) (antibody, V domains shown)
VH: QVELVESGGGLVQPGGSLRLSCAASGFTFSSYAMNWVRQAPGKGLEWVSAISFSGHLTGYADSVKGRFTISRDNSKNTLYLQMNSLRAEDTAVYYCARIQNDPMDVWGQGTLVTVSS
VL: DIELTQPPSVSVAPGQTARISCSGDNLGKKYVQWYQQKPGQAPVLVIYDDSNRPSGIPERFSGSNSGNTATLTISGTQAEDEADYYCQTWDYSSIRDETNVFGGGTKLTVLGQ
modifications: Optimized cDNA sequence of variable region of Ab5007 or Ab5151 heavy chain; Optimized cDNA sequence of variable region of Ab4999 light chain
inhibition of trypsin-induced calcium release in LLC cells (in words) [7]: efficient inhibition | IC50 ([7]; trypsin-induced, value (SD)): 0.7 nM | inhibition of trypsin mediated calcium response/release in A549 (in words) [5]: potent inhibition | IC50 ([5]; trypsin stimulated, value (SD)): 1 nM

B4: Ab4997: affinity matured from Ab3777, H-CDR2 optimized; heavy chain SEQ ID NO:23, light chain SEQ ID NO:6 (antibody, V domains shown)
VH: QVQLVESGGGLVQPGGSLRLSCAASGFTFSSYAMNWVRQAPGKGLEWVSAISYNGKLKGYADSVKGRFTISRDNSKNTLYLQMNSLRAEDTAVYYCARIQNDPMDVWGQGTLVTVSS
VL: DIELTQPPSVSVAPGQTARISCSGDNLGKKYVQWYQQKPGQAPVLVIYDDSNRPSGIPERFSGSNSGNTATLTISGTQAEDEADYYCSSWDVGSDGWVFGGGTKLTVLGQ
modifications: Antibody modified via affinity maturation; Antibody identified via phage display
EC50 [2]: 3.03 nM | Ratio of EC50 Fab EC50 IgG [2]: 8.0

B5: Ab5003: affinity matured from Ab3777, H-CDR2 optimized; heavy chain SEQ ID NO:24, light chain SEQ ID NO:6 (antibody, V domains shown)
VH: QVQLVESGGGLVQPGGSLRLSCAASGFTFSSYAMNWVRQAPGKGLEWVSAISYKGHLTGYADSVKGRFTISRDNSKNTLYLQMNSLRAEDTAVYYCARIQNDPMDVWGQGTLVTVSS
VL: DIELTQPPSVSVAPGQTARISCSGDNLGKKYVQWYQQKPGQAPVLVIYDDSNRPSGIPERFSGSNSGNTATLTISGTQAEDEADYYCSSWDVGSDGWVFGGGTKLTVLGQ
modifications: Antibody modified via affinity maturation; Antibody identified via phage display
EC50 [2]: 7.03 nM | Ratio of EC50 Fab EC50 IgG [2]: 15.3

B6: Ab5007: affinity matured from Ab3777, H-CDR2 optimized; heavy chain SEQ ID NO:26, light chain SEQ ID NO:6 (antibody, V domains shown)
VH: QVQLVESGGGLVQPGGSLRLSCAASGFTFSSYAMNWVRQAPGKGLEWVSAISFSGHLTGYADSVKGRFTISRDNSKNTLYLQMNSLRAEDTAVYYCARIQNDPMDVWGQGTLVTVSS
VL: DIELTQPPSVSVAPGQTARISCSGDNLGKKYVQWYQQKPGQAPVLVIYDDSNRPSGIPERFSGSNSGNTATLTISGTQAEDEADYYCSSWDVGSDGWVFGGGTKLTVLGQ
modifications: Antibody modified via affinity maturation; Antibody identified via phage display
EC50 [2]: 9.66 nM | Ratio of EC50 Fab EC50 IgG [2]: 19.3

B7: Ab4994: affinity matured from Ab3777, H-CDR2 optimized; heavy chain SEQ ID NO:21, light chain SEQ ID NO:6 (antibody, V domains shown)
VH: QVQLVESGGGLVQPGGSLRLSCAASGFTFSSYAMNWVRQAPGKGLEWVSAISYSGHLTGYADSVKGRFTISRDNSKNTLYLQMNSLRAEDTAVYYCARIQNDPMDVWGQGTLVTVSS
VL: DIELTQPPSVSVAPGQTARISCSGDNLGKKYVQWYQQKPGQAPVLVIYDDSNRPSGIPERFSGSNSGNTATLTISGTQAEDEADYYCSSWDVGSDGWVFGGGTKLTVLGQ
modifications: Antibody modified via affinity maturation; Antibody identified via phage display
EC50 [2]: 1.9 nM | Ratio of EC50 Fab EC50 IgG [2]: 4.8
